Key:
[1] = target: T1, recombinant TFPI of the FXa restoring assay (human, mouse or rat; species not stated for Tables 9 and 10); test: cell-based or functional assay
[2] = target: T1, recombinant TFPI of the FXa restoring …; test: cell-based or functional assay; remark: listed apart in the source

IC 50, FXa restoring assay [1] [µg/mL]	Improvement of IC50 vs 4B7wt [1] [fold]	Improvement of IC50 vs 2A8wt [1] [fold]	EC50, FXa restoring assay [2] [nM]	Improvement of EC50 vs 2A8 wt [2] [fold]	Binder
1.46	1				4B7 wild-type Fab (Fab, V domains shown) VH: QVQLQQSGPGLVKPSQTLSLTCAISGDSVSSNSAAWSWIRQSPGRGLEWLGIIYKRSKWYNDYAVSVKSRITINPDTSKNQFSLQLNSVTPEDTAVYYCARWHSDKHWGFDYWGQGTLVTVSS VL: DIVMTQSPLSLPVTPGEPASISCRSSQSLVFSDGNTYLNWYLQKPGQSPQLLIYKGSNRASGVPDRFSGSGSGTDFTLKISRVEAEDVGVYYCQQYDSYPLTFGQGTKVEIKR
0.058	25				4B7 HC D62R (Fab, V domains shown) VH: QVQLQQSGPGLVKPSQTLSLTCAISGDSVSSNSAAWSWIRQSPGRGLEWLGIIYKRSKWYNRYAVSVKSRITINPDTSKNQFSLQLNSVTPEDTAVYYCARWHSDKHWGFDYWGQGTLVTVSS VL: DIVMTQSPLSLPVTPGEPASISCRSSQSLVFSDGNTYLNWYLQKPGQSPQLLIYKGSNRASGVPDRFSGSGSGTDFTLKISRVEAEDVGVYYCQQYDSYPLTFGQGTKVEIKR
0.7		1	7.91	1	2A8 wild-type Fab (Fab, V domains shown) VH: QVQLVESGGGLVQPGGSLRLSCAASGFTFRSYGMSWVRQAPGKGLEWVSSIRGSSSSTYYADSVKGRFTISRDNSKNTLYLQMNSLRAEDTAVYYCARKYRYWFDYWGQGTLVTVSS VL: DIELTQPPSVSVAPGQTARISCSGDNLRNYYAHWYQQKPGQAPVVVIYYDNNRPSGIPERFSGSNSGNTATLTISGTQAEDEADYYCQSWDDGVPVFGGGTKLTVLG
0.201		3.5			2A8 HC S31V (Fab, V domains shown) VH: QVQLVESGGGLVQPGGSLRLSCAASGFTFRVYGMSWVRQAPGKGLEWVSSIRGSSSSTYYADSVKGRFTISRDNSKNTLYLQMNSLRAEDTAVYYCARKYRYWFDYWGQGTLVTVSS VL: DIELTQPPSVSVAPGQTARISCSGDNLRNYYAHWYQQKPGQAPVVVIYYDNNRPSGIPERFSGSNSGNTATLTISGTQAEDEADYYCQSWDDGVPVFGGGTKLTVLG
			0.5	15.8	2A8-143 (Fab, V domains shown) VH: QVQLVESGGGLVQPGGSLRLSCAASGFTFRSYGMDWVRQAPGKGLEWVSSIRGSRSSTYYADSVKGRFTISRDNSKNTLYLQMNSLRAEDTAVYYCARLYRYWFDYWGQGTLVTVSS VL: DIELTQPPSVSVAPGQTARISCSGDNLRNYYAHWYQQKPGQAPVVVIFYDVNRPSGIPERFSGSNSGNTATLTISGTQAEDEADYYCQSWLDGVPWFGGGTKLTVLG
0.39		1.6			2A8 HC K99V (Fab, V domains shown) VH: QVQLVESGGGLVQPGGSLRLSCAASGFTFRSYGMSWVRQAPGKGLEWVSSIRGSSSSTYYADSVKGRFTISRDNSKNTLYLQMNSLRAEDTAVYYCARVYRYWFDYWGQGTLVTVSS VL: DIELTQPPSVSVAPGQTARISCSGDNLRNYYAHWYQQKPGQAPVVVIYYDNNRPSGIPERFSGSNSGNTATLTISGTQAEDEADYYCQSWDDGVPVFGGGTKLTVLG
0.37		1.7			2A8 LC D91L (Fab, V domains shown) VH: QVQLVESGGGLVQPGGSLRLSCAASGFTFRSYGMSWVRQAPGKGLEWVSSIRGSSSSTYYADSVKGRFTISRDNSKNTLYLQMNSLRAEDTAVYYCARKYRYWFDYWGQGTLVTVSS VL: DIELTQPPSVSVAPGQTARISCSGDNLRNYYAHWYQQKPGQAPVVVIYYDNNRPSGIPERFSGSNSGNTATLTISGTQAEDEADYYCQSWLDGVPVFGGGTKLTVLG
0.34		1.9			2A8 LC Y48F (Fab, V domains shown) VH: QVQLVESGGGLVQPGGSLRLSCAASGFTFRSYGMSWVRQAPGKGLEWVSSIRGSSSSTYYADSVKGRFTISRDNSKNTLYLQMNSLRAEDTAVYYCARKYRYWFDYWGQGTLVTVSS VL: DIELTQPPSVSVAPGQTARISCSGDNLRNYYAHWYQQKPGQAPVVVIFYDNNRPSGIPERFSGSNSGNTATLTISGTQAEDEADYYCQSWDDGVPVFGGGTKLTVLG
0.55		1.1			2A8 HC S35D (Fab, V domains shown) VH: QVQLVESGGGLVQPGGSLRLSCAASGFTFRSYGMDWVRQAPGKGLEWVSSIRGSSSSTYYADSVKGRFTISRDNSKNTLYLQMNSLRAEDTAVYYCARKYRYWFDYWGQGTLVTVSS VL: DIELTQPPSVSVAPGQTARISCSGDNLRNYYAHWYQQKPGQAPVVVIYYDNNRPSGIPERFSGSNSGNTATLTISGTQAEDEADYYCQSWDDGVPVFGGGTKLTVLG
0.35		2			2A8 HC S54F (Fab, V domains shown) VH: QVQLVESGGGLVQPGGSLRLSCAASGFTFRSYGMSWVRQAPGKGLEWVSSIRGFSSSTYYADSVKGRFTISRDNSKNTLYLQMNSLRAEDTAVYYCARKYRYWFDYWGQGTLVTVSS VL: DIELTQPPSVSVAPGQTARISCSGDNLRNYYAHWYQQKPGQAPVVVIYYDNNRPSGIPERFSGSNSGNTATLTISGTQAEDEADYYCQSWDDGVPVFGGGTKLTVLG
0.34		1.9			2A8 LC D91K (Fab, V domains shown) VH: QVQLVESGGGLVQPGGSLRLSCAASGFTFRSYGMSWVRQAPGKGLEWVSSIRGSSSSTYYADSVKGRFTISRDNSKNTLYLQMNSLRAEDTAVYYCARKYRYWFDYWGQGTLVTVSS VL: DIELTQPPSVSVAPGQTARISCSGDNLRNYYAHWYQQKPGQAPVVVIYYDNNRPSGIPERFSGSNSGNTATLTISGTQAEDEADYYCQSWKDGVPVFGGGTKLTVLG
			0.44	18.2	2A8-127 (Fab, V domains shown) VH: QVQLVESGGGLVQPGGSLRLSCAASGFTFRSYGMDWVRQAPGKGLEWVSSIRGSSSSTYYADSVKGRFTISRDNSKNTLYLQMNSLRAEDTAVYYCARLYRYWFDYWGQGTLVTVSS VL: DIELTQPPSVSVAPGQTARISCSGDNLRNYYAHWYQQKPGQAPVVVIFYDVNRPSDIPERFSGSNSGNTATLTISGTQAEDEADYYCQSWDDGVPWFGGGTKLTVLG
			1.08	7.3	2A8-216 (Fab, V domains shown) VH: QVQLVESGGGLVQPGGSLRLSCAASGFTFRVYGMSWVRQAPGKGLEWVSSDRGSRSSTYYADSVKGRFTISRDNSKNTLYLQMNSLRAEDTAVYYCARVYRYWFDYWGQGTLVTVSS VL: DIELTQPPSVSVAPGQTARISCSGDNLRNYYAHWYQQKPGQAPVVVIFYDNNRPSGIPERFSGSNSGNTATLTISGTQAEDEADYYCQSWLDGVPWFGGGTKLTVLG
0.181		3.9	1	7.9	2A8 HC K99L (Fab, V domains shown) VH: QVQLVESGGGLVQPGGSLRLSCAASGFTFRSYGMSWVRQAPGKGLEWVSSIRGSSSSTYYADSVKGRFTISRDNSKNTLYLQMNSLRAEDTAVYYCARLYRYWFDYWGQGTLVTVSS VL: DIELTQPPSVSVAPGQTARISCSGDNLRNYYAHWYQQKPGQAPVVVIYYDNNRPSGIPERFSGSNSGNTATLTISGTQAEDEADYYCQSWDDGVPVFGGGTKLTVLG
0.33		1.7			2A8 HC S31P (Fab, V domains shown) VH: QVQLVESGGGLVQPGGSLRLSCAASGFTFRPYGMSWVRQAPGKGLEWVSSIRGSSSSTYYADSVKGRFTISRDNSKNTLYLQMNSLRAEDTAVYYCARKYRYWFDYWGQGTLVTVSS VL: DIELTQPPSVSVAPGQTARISCSGDNLRNYYAHWYQQKPGQAPVVVIYYDNNRPSGIPERFSGSNSGNTATLTISGTQAEDEADYYCQSWDDGVPVFGGGTKLTVLG
0.23		3			2A8 LC D91W (Fab, V domains shown) VH: QVQLVESGGGLVQPGGSLRLSCAASGFTFRSYGMSWVRQAPGKGLEWVSSIRGSSSSTYYADSVKGRFTISRDNSKNTLYLQMNSLRAEDTAVYYCARKYRYWFDYWGQGTLVTVSS VL: DIELTQPPSVSVAPGQTARISCSGDNLRNYYAHWYQQKPGQAPVVVIYYDNNRPSGIPERFSGSNSGNTATLTISGTQAEDEADYYCQSWWDGVPVFGGGTKLTVLG
			0.81	9.7	2A8-200 (Fab, V domains shown) VH: QVQLVESGGGLVQPGGSLRLSCAASGFTFRSYGMDWVRQAPGKGLEWVSSIRGSRSSTYYADSVKGRFTISRDNSKNTLYLQMNSLRAEDTAVYYCARLYRYWFDYWGQGTLVTVSS VL: DIELTQPPSVSVAPGQTARISCSGDNLRNYYAHWYQQKPGQAPVVVIFYDVNRPSGIPERFSGSNSGNTATLTISGTQAEDEADYYCQSWWDGVPVFGGGTKLTVLG
0.76		0.9			2A8 HC I51E (Fab, V domains shown) VH: QVQLVESGGGLVQPGGSLRLSCAASGFTFRSYGMSWVRQAPGKGLEWVSSERGSSSSTYYADSVKGRFTISRDNSKNTLYLQMNSLRAEDTAVYYCARKYRYWFDYWGQGTLVTVSS VL: DIELTQPPSVSVAPGQTARISCSGDNLRNYYAHWYQQKPGQAPVVVIYYDNNRPSGIPERFSGSNSGNTATLTISGTQAEDEADYYCQSWDDGVPVFGGGTKLTVLG

From patent US20120108796A1 (Bayer, published 2012)
